Data reported in the supplement of paper PMC10126150.
± gives the standard deviation of the averaged measurements.

test system: ATP; assay: switch fluorescence ratio, 500 uM ATP over buffer (Cy3 cluster intensity, sum of 5 cycles each) (fold (ratio)); higher = stronger signal-on switching upon ATP binding; sequences stand for … in TCGTCGGCAGCGTCAGATGTGTATAAGAGACAGTTTTTTTTTTTTTTTTTTTTTTTTT…TC; conditions: aptamer strand: ATP DNA aptamer (quencher-CACCTGGGGGAGTATTGCGGAGGAAGG + anchor), 100 nM annealed; ATP concentration: 500 uM
Method in brief: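 Clusters carrying Cy3-labelled switching strands on a modified Illumina MiSeq flow-cell were annealed to 100 nM quencher-labelled ATP aptamer and imaged in selection buffer. They were imaged again after 15 min with 500 uM ATP at 22 °C, over five buffer/ATP cycles with NaOH stripping and re-annealing in between. For each cluster, the fluorescence ratio is the summed Cy3 intensity of the target cycles divided by that of the buffer cycles, averaged per switch-domain sequence. Clusters outside 100-1000 RFU were left out.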
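Also: ATP exposure 15 min at 22 °C before imaging.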

TTGTTCGTTT and TTGTTGAATA are within error of each other in switch fluorescence ratio: 0.986 ± 0.025 for the first, 1.003 ± 0.0016 for the second.

TTGTTGGGCC and TTGTTGGTGG are within error of each other in switch fluorescence ratio: 1.01 ± 0.036 for the first, 0.9856 ± 0.0066 for the second.

TTGTTGTGAC and TTGTTGTGCT are within error of each other in switch fluorescence ratio: 0.994 ± 0.028 for the first, 0.961 ± 0.033 for the second.

Compared with TTGTTGTTCG, TTGTTTACCG is lower in switch fluorescence ratio: 1.01 ± 0.034 for the first, 0.9557 ± 0.0045 for the second.

Compared with TTGTTTAGGA, TTGTTTCAAG is higher in switch fluorescence ratio: 0.9763 ± 0.0012 for the first, 1.01 ± 0.029 for the second.

TTGTTTCTTG and TTGTTTGGGT are within error of each other in switch fluorescence ratio: 0.981 ± 0.049 for the first, 0.984 ± 0.014 for the second.

TTGTTTTCCA and TTGTTTTGCT are within error of each other in switch fluorescence ratio: 0.987 ± 0.018 for the first, 0.999 ± 0.073 for the second.

TTGTTTTTCG and TTGTTTTTTG are within error of each other in switch fluorescence ratio: 0.978 ± 0.027 for the first, 1.01 ± 0.034 for the second.

TTTAAAAAAG and TTTAAAAGAT are within error of each other in switch fluorescence ratio: 1.02 ± 0.028 for the first, 1.01 ± 0.035 for the second.

TTTAAAAGGT and TTTAAAATGG are the same in switch fluorescence ratio: 1 ± 0.011 for the first, 0.9998 ± 0.0073 for the second.

TTTAAACCGG and TTTAAAGAAT are within error of each other in switch fluorescence ratio: 1.02 ± 0.016 for the first, 1.04 ± 0.079 for the second.

TTTAAAGCCC and TTTAAAGGAT are within error of each other in switch fluorescence ratio: 1.01 ± 0.043 for the first, 1 ± 0.024 for the second.

TTTAAAGGCA and TTTAAAGTGA are within error of each other in switch fluorescence ratio: 0.991 ± 0.011 for the first, 1 ± 0.032 for the second.

TTTAAATCGG and TTTAACAGTT are within error of each other in switch fluorescence ratio: 0.979 ± 0.04 for the first, 1.01 ± 0.051 for the second.

TTTAACCAAT and TTTAACCTTT are within error of each other in switch fluorescence ratio: 1.02 ± 0.064 for the first, 1.05 ± 0.051 for the second.

Compared with TTTAACGTTG, TTTAACTAGA is higher in switch fluorescence ratio: 0.989 ± 0.04 for the first, 1.041 ± 0.0061 for the second.

TTTAACTGCG and TTTAACTTAT are within error of each other in switch fluorescence ratio: 1.02 ± 0.036 for the first, 1.03 ± 0.02 for the second.

TTTAACTTTG and TTTAAGAGAA are within error of each other in switch fluorescence ratio: 1.011 ± 0.0084 for the first, 1.001 ± 0.0059 for the second.

Compared with TTTAAGAGCG, TTTAAGAGGT is lower in switch fluorescence ratio: 1.02 ± 0.013 for the first, 0.982 ± 0.023 for the second.

TTTAAGAGTA and TTTAAGCAGA are within error of each other in switch fluorescence ratio: 1 ± 0.067 for the first, 1.04 ± 0.041 for the second.

Going from TTTAAGCCCC to TTTAAGGCGT, the switch fluorescence ratio rises from 0.9854 ± 0.0082 to 1.03 ± 0.016.

TTTAAGGGCG and TTTAAGGGGG are within error of each other in switch fluorescence ratio: 0.981 ± 0.045 for the first, 1.15 ± 0.28 for the second.

TTTAAGTAAG and TTTAAGTCTA are within error of each other in switch fluorescence ratio: 1.02 ± 0.012 for the first, 0.992 ± 0.039 for the second.

TTTAAGTGAT and TTTAAGTGTC are within error of each other in switch fluorescence ratio: 1.01 ± 0.057 for the first, 1.09 ± 0.11 for the second.

TTTAAGTTTT and TTTAATAGCT are the same in switch fluorescence ratio: 1 ± 0.022 for the first, 1 ± 0.04 for the second.

TTTAATATTT and TTTAATCCGT are within error of each other in switch fluorescence ratio: 1.04 ± 0.077 for the first, 1.01 ± 0.055 for the second.

TTTAATCTGG and TTTAATGA are within error of each other in switch fluorescence ratio: 0.968 ± 0.021 for the first, 0.976 ± 0.011 for the second.

TTTAATGGAA and TTTAATGTAT are within error of each other in switch fluorescence ratio: 0.988 ± 0.012 for the first, 1.19 ± 0.3 for the second.

First: TTTAATGTTG
Second: TTTAATTTGG
The switch fluorescence ratio of the first is higher: 1.014 ± 0.0082 for the first, 0.9816 ± 0.0073 for the second.

TTTAATTTTC and TTTACAACGC are the same in switch fluorescence ratio: 1.05 ± 0.14 for the first, 1.05 ± 0.012 for the second.

TTTACAGGGA and TTTACATTTT are within error of each other in switch fluorescence ratio: 1.027 ± 0.0086 for the first, 0.998 ± 0.044 for the second.

TTTACCCCGC and TTTACGATGC are within error of each other in switch fluorescence ratio: 1.63 ± 0.58 for the first, 1.05 ± 0.0062 for the second.

TTTACGGAGA and TTTACGGCTA are within error of each other in switch fluorescence ratio: 1.03 ± 0.041 for the first, 1.06 ± 0.014 for the second.

TTTACGGGAT and TTTACGGTCA are within error of each other in switch fluorescence ratio: 1.06 ± 0.036 for the first, 1.04 ± 0.039 for the second.

First: TTTACTAGGT
Second: TTTACTCGGA
The switch fluorescence ratio of the first is lower: 0.959 ± 0.026 for the first, 1.033 ± 0.0099 for the second.

First: TTTACTTA
Second: TTTACTTACG
The switch fluorescence ratio of the first is lower: 1.0157 ± 0.00064 for the first, 1.22 ± 0.18 for the second.

TTTACTTATT and TTTACTTGGG are within error of each other in switch fluorescence ratio: 1 ± 0.019 for the first, 0.9767 ± 0.0077 for the second.

Compared with TTTACTTTCC, TTTAGACGTT is lower in switch fluorescence ratio: 1.56 ± 0.16 for the first, 1.02 ± 0.016 for the second.

TTTAGAGAGA and TTTAGATGTG are within error of each other in switch fluorescence ratio: 0.975 ± 0.015 for the first, 1 ± 0.014 for the second.

Going from TTTAGCAGGT to TTTAGCCATT, the switch fluorescence ratio falls from 1.05 ± 0.014 to 0.992 ± 0.012.

First: TTTAGCTTGT
Second: TTTAGGAAGT
The switch fluorescence ratio of the first is lower: 0.972 ± 0.011 for the first, 1.0072 ± 0.00083 for the second.

TTTAGGCATT and TTTAGGCCGT are within error of each other in switch fluorescence ratio: 1.03 ± 0.031 for the first, 1.05 ± 0.066 for the second.

TTTAGGGGCG and TTTAGGGGCT are within error of each other in switch fluorescence ratio: 1.03 ± 0.1 for the first, 0.9764 ± 0.0076 for the second.

TTTAGGGTGT and TTTAGGGTTC are within error of each other in switch fluorescence ratio: 1.05 ± 0.071 for the first, 1.04 ± 0.1 for the second.

TTTAGGGTTG and TTTAGGTAAC are within error of each other in switch fluorescence ratio: 0.988 ± 0.022 for the first, 0.9922 ± 0.0079 for the second.

TTTAGGTGTA and TTTAGGTGTT are within error of each other in switch fluorescence ratio: 0.985 ± 0.02 for the first, 1.05 ± 0.074 for the second.

TTTAGGTTGG and TTTAGTTGAT are within error of each other in switch fluorescence ratio: 0.994 ± 0.031 for the first, 1.01 ± 0.031 for the second.

Compared with TTTAGTTTTG, TTTATAAATT is lower in switch fluorescence ratio: 1.017 ± 0.005 for the first, 0.972 ± 0.032 for the second.

TTTATAACCA and TTTATACAA are within error of each other in switch fluorescence ratio: 1.05 ± 0.024 for the first, 1.018 ± 0.0097 for the second.

TTTATACCAG and TTTATAGCT are within error of each other in switch fluorescence ratio: 1.004 ± 0.0066 for the first, 1.02 ± 0.027 for the second.
